Laboratory results as given in patent US20090318350A1, “PAN-HER ANTAGONISTS AND METHODS OF USE” (published 2009).

B1: EGF (purified protein) (ligand)
chain: HHHHHHIEGRNSDSECPLSHDGYCLHDGVCMYIEALDKYACNCWGYIGERCQYRDLKWWELR
B2: Heregulin (purified protein) (ligand)
chain: SHLVKCAEKEKTFCVNGGECFMVKDLSNPSRYLCKCPNEFTGDRCQNYVMASFYKHLGIEFMEAEELY

Experiments:
[1] = target: human epidermal growth factor receptor (EGFR) (human, UniProt P00533); assay: cell-based or functional assay
[2] = target: HER3 receptor (human, UniProt P21860); assay: cell-based or functional assay

Row | Binder | Calculated cell proliferation (EC50; picomolar) [1] [picomolar] | Calculated cell proliferation (EC50; picomolar) [2] [picomolar]
1 | B1 | 1150 | 
2 | B2 |  | 6150
